Measured values: IntAct's records for PubMed 25009770

B1: Heterogeneous nuclear ribonucleoprotein A1 (Homo sapiens), P09651-2 (parent)
chain: MSKSESPKEPEQLRKLFIGGLSFETTDESLRSHFEQWGTLTDCVVMRDPNTKRSRGFGFVTYATVEEVDAAMNARPHKVDGRVVEPKRAVSREDSQRPGAHLTVKKIFVGGIKEDTEEHHLRDYFEQYGKIEVIEIMTDRGSGKKRGFAFVTFDDHDSVDKIVIQKYHTVNGHNCEVRKALSKQEMASASSSQRGRSGSGNFGGGRGGGFGGNDNFGRGGNFSGRGGFGGSRGGGGYGGSGDGYNGFGNDGSNFGGGGSYNDFGNYNNQSSNFGPMKGGNFGGRSSGPYGGGGQYFAKPRNQGGYGGSSSSSSYGSGRRF
partner: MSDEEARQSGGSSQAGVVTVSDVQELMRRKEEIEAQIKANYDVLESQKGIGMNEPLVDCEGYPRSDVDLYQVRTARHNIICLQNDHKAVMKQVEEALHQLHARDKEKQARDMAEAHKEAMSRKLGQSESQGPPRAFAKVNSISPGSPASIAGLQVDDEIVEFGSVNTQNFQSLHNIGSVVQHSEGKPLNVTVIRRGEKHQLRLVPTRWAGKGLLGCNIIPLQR
B2: Transcription factor E2-alpha (Homo sapiens), P15923-1 (parent)
chain: MNQPQRMAPVGTDKELSDLLDFSMMFPLPVTNGKGRPASLAGAQFGGSGLEDRPSSGSWGSGDQSSSSFDPSRTFSEGTHFTESHSSLSSSTFLGPGLGGKSGERGAYASFGRDAGVGGLTQAGFLSGELALNSPGPLSPSGMKGTSQYYPSYSGSSRRRAADGSLDTQPKKVRKVPPGLPSSVYPPSSGEDYGRDATAYPSAKTPSSTYPAPFYVADGSLHPSAELWSPPGQAGFGPMLGGGSSPLPLPPGSGPVGSSGSSSTFGGLHQHERMGYQLHGAEVNGGLPSASSFSSAPGATYGGVSSHTPPVSGADSLLGSRGTTAGSSGDALGKALASIYSPDHSSNNFSSSPSTPVGSPQGLAGTSQWPRAGAPGALSPSYDGGLHGLQSKIEDHLDEAIHVLRSHAVGTAGDMHTLLPGHGALASGFTGPMSLGGRHAGLVGGSHPEDGLAGSTSLMHNHAALPSQPGTLPDLSRPPDSYSGLGRAGATAAASEIKREEKEDEENTSAADHSEEEKKELKAPRARTSPDEDEDDLLPPEQKAEREKERRVANNARERLRVRDINEAFKELGRMCQLHLNSEKPQTKLLILHQAVSVILNLEQQVRERNLNPKAACLKRREEEKVSGVVGDPQMVLSAPHPGLSEAHNPAGHM
partner: B1 partner
B3: Chorionic somatomammotropin hormone 1 (Homo sapiens), P0DML2 (parent)
chain: MAPGSRTSLLLAFALLCLPWLQEAGAVQTVPLSRLFDHAMLQAHRAHQLAIDTYQEFEETYIPKDQKYSFLHDSQTSFCFSDSIPTPSNMEETQQKSNLELLRISLLLIESWLEPVRFLRSMFANNLVYDTSDSDDYHLLKDLEEGIQTLMGRLEDGSRRTGQILKQTYSKFDTNSHNHDALLKNYGLLYCFRKDMDKVETFLRMVQCRSVEGSCGF
partner: B1 partner

Variants of: B1
Details: with psmd9_human PSMD9, O00233

Variant | effect of a mutation on the interaction
F320G | disrupting interaction strength

Variants of: B1
Details: with psmd9_human PSMD9, O00233
Remark: another data set of the same source

Variant | effect of a mutation on the interaction
F320G | decreasing interaction strength

Variants of: B1
Details: with psmd9_human PSMD9, O00233
Remark: another data set of the same source

Variant | effect of a mutation on the interaction
F320G | with no effect

Variants of: B2
Details: with psmd9_human PSMD9, O00233

Variant | effect of a mutation on the interaction
M654G | decreasing interaction strength

Variants of: B3
Details: with psmd9_human PSMD9, O00233

Variant | effect of a mutation on the interaction
MAPGSRTSLLLAFALLCLPWLQEAGAVQTVPLSRLFDHAMLQAHRAHQLAIDTYQEFEETYIPKDQKYSFLHDSQTSFCFSDSIPTPSNMEETQQKSNLELLRISLLLIESWLEPVRFLRSMFANNLVYDTSDSDDYHLLKDLEEGIQTLMGRLEDGSRRTGQILKQTYSKFDTNSHNHDALLKNYGLLYCFRKDMDKVETFLRMVQCRSVEGSCGG [F217G] | with no effect
